The values below come from PMC4950607.

pKd: −log10 of the molar value.

As usually defined, the pKd is the Kd on a negative log10 scale, so that one unit is a factor of ten. Low readings indicate a high Kd, high ones a low Kd.

The test system of this series is RsmA (His6-Thb-RsmA) (Pseudomonas aeruginosa). As to the kind of experiment: EMSA. Conditions: 17 nt 3' extension hybridized to DNA primer.

Regarding RsmW sRNA, 3'-extended, labeled, the pKd was 7.94.
